Sequences and labels used below:
B1: Enterococcus hirae V-ATPase D-subunit (natural protein)
chain: MRLNVNPTRMELTRLKKQLTTATRGHKLLKDKQDELMRQFILLIRKNNELRQAIEKETQTAMKDFVLAKSTVEEAFIDELLALPAENVSISVVEKNIMSVKVPLMNFQYDETLNETPLEYGYLHSNAELDRSIDGFTQLLPKLLKLAEVEKTCQLMAEEIEKTRRRVNALEYMTIPQLEETIYYIKMKLEENERAEVTRLIKVKNMGTEE
notes: D-subunit (rotor shaft) of the V-type Na+-ATPase of Enterococcus hirae; also called rotor D-subunit; source: E. coli, recombinant; purified as part of the whole EhV-ATPase complex (Ni-NTA, Superdex 200, 0.05% DDM)
B2: Enterococcus hirae V-ATPase d-subunit (natural protein, UniProt P43456 1-328, looked up)
chain: MEYHELNPLIRGRELELISKDTFEQMIQTDSIDSLGEILQSTIYQPYIYDGFDKDFEANLSQERSKLFQWLKESAPEPEIVWIYTMRYTFHNLKVLTKAEITGQNLDHLYIHDGFYSLEVLKDAIHTQVSVELPDSLMDYIREVHEYCEESTILQGIDVIYDRCFLTEQRRLGEQLGYPELLEEIIAFIDLTNITTTARGILQHRSAGFMTTVISSSGSIPKDTLLSFVRGEMASFTQFLLTTDYSELLKQVIHEEQIDLVSLEQLKDDYLSSFYQVAQTQAFGPLPLLAFLNAKEVESKNLRLLIIGKRNHFSLEQLKERMRQVYDL
notes: d-subunit (terminus of the rotor shaft) of the V-type Na+-ATPase of Enterococcus hirae; Modelled by homology (I-TASSER, template PDB 1R5Z of another species) and fitted as a rigid body; also called rotor shaft terminus; source: E. coli, recombinant; purified as part of the whole EhV-ATPase complex (Ni-NTA, Superdex 200, 0.05% DDM)
B3: Enterococcus hirae V-ATPase EG peripheral stalk (complex)
chain 1: MPIDKIITQINETAQLERASFEEMKRKEIDQKFEVKKWQIEADFQKEKASKLEEIERSYRQLRNKQKMQVKQEILNAKQEVLQRLFTEATLQLENEPKEEQLALMKQMIQTLPINGTARLIPGEKSADILTPAVIAEWNEELPFELIREDFTEKAQAGLIIDDAGIQYNFLFSHLIKEIQETMSAEIAKELFD
chain 2: MARILTRIKEAEENNQKKEEQVKAELAQYEQLKNNELIDLNKEFQERLTKLMKEKEKNEEEVTEDEQHKLELILEQFRQKVLEIEKTYLEKEEEEIAKKKNLTNEIIERMKQNNGCH
notes: E-subunit of the V-type Na+-ATPase of Enterococcus hirae; G-subunit of the V-type Na+-ATPase of Enterococcus hirae; Two such stalks stand in the complex; E and G were modelled by homology (templates PDB 4DT0 and 5GAS of other species); also called EG stalk complex; EG stalks; source: E. coli, recombinant; purified as part of the whole EhV-ATPase complex (Ni-NTA, Superdex 200, 0.05% DDM)

Test [1] deals with B2. In words: cryo-EM structure; detergent-solubilised (0.05% DDM) whole EhV-ATPase, 0.13 mM, with 7 mM ATP, 100 mM Na+ and Mg2+, vitrified during turnover; six states (1, 1', 2, 2', 3, 3') sorted from one sample, whole-complex maps 4.3-7.7 A, V1-focussed maps 3.8-7.7 A; crystal structures and homology models fitted into the maps. Particulars: both partners purified.
Test [2] deals with T1, Enterococcus hirae V-ATPase a-subunit (Enterococcus hirae, UniProt P43439 1-664).
T1 construct: a-subunit (stator, membrane-integrated region and extrinsic arm) of the V-type Na+-ATPase of Enterococcus hirae; Modelled by homology (I-TASSER, template PDB 6C6L of another species); also called stator a-subunit; source: E. coli, recombinant; purified as part of the whole EhV-ATPase complex (Ni-NTA, Superdex 200, 0.05% DDM)
T1 sequence (looked up): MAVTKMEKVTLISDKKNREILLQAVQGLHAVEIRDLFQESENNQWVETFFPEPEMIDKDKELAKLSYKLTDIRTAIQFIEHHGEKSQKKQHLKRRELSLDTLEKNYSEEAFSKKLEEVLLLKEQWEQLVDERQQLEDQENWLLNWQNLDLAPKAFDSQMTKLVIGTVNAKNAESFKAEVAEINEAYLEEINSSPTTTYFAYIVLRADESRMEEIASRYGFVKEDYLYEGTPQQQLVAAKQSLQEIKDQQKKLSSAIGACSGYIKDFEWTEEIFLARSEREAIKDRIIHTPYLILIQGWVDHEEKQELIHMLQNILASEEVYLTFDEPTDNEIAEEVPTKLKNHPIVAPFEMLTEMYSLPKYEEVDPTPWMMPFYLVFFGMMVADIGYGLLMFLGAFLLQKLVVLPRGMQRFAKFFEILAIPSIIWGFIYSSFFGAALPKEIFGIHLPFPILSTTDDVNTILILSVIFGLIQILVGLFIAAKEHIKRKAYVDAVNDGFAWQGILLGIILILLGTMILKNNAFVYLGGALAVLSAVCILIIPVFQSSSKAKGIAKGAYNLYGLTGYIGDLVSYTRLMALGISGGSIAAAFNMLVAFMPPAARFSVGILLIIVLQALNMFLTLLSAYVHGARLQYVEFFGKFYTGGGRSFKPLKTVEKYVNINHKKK
The test is described as above. Particulars: both partners purified.

Consider B1, for which the binding result in test [1] is recorded as “binds”.
B2: the binding result in test [2] was “binds”.
In the case of B3, the binding result in test [2] is on record as “binds”.

Values taken from PMC10382590, “Six states of Enterococcus hirae V-type ATPase reveals non-uniform rotor rotation during turnover” (Communications Biology, 2023).
